Experiments:
Assay in all cases: cell-based or functional assay
[1] = target: HIV-1 92RW020 Env (pseudovirus) (HIV-1 92RW020)
[2] = target: HIV-1 Env of isolate THRO.18 (HIV-1)
[3] = target: HIV-1 JR-CSF Env I309A (pseudovirus) (HIV-1 JR-CSF) (UniProt P20871)
[4] = target: MuLV envelope protein (control pseudovirus) (MuLV)
[5] = target: HIV-1 Env of isolate REJ04541 (HIV-1)
[6] = target: HIV-1 Env of isolate DU156 (HIV-1)
[7] = target: HIV-1 Env of isolate AC10 (HIV-1)
[8] = target: HIV-1 Env of isolate Du172 (HIV-1)
[9] = target: HIV-1 JR-FL Env E168K (pseudovirus) (HIV-1 JR-FL)
[10] = target: HIV-1 JR-CSF Env Y318A (pseudovirus) (HIV-1 JR-CSF) (UniProt P20871)
[11] = target: HIV-1 ADA Env (pseudovirus) (HIV-1 ADA)
[12] = target: HIV-1 Env of isolate DU422 (HIV-1)
[13] = target: HIV-1 Env of isolate ZM249 (HIV-1)
[14] = target: HIV-1 Env of isolate CAAN (HIV-1)
[15] = target: HIV-1 Env of isolate TR0.11 (HIV-1)
[16] = target: HIV-1 Env of isolate PVO.4 (HIV-1)
[17] = target: HIV-1 JR-CSF Env, wild type (pseudovirus) (HIV-1 JR-CSF) (UniProt P20871)
[18] = target: HIV-1 Env of isolate ZM233 (HIV-1)
[19] = target: HIV-1 Env of isolate ZM214 (HIV-1)
[20] = target: HIV-1 Env of isolate CAP45 (HIV-1)

B1: 1489_I13 (PG16) (TCN-120) (antibody, V domains shown)
VH: QEQLLESGGGVVQPGGSLRLSCLASGFTFHKYGMHWVRQAPGKGLEWVALISDDGMRKYHSNSMWGRVTISRDNSKNTLYLQFSSLKVEDTAMFFCAREAGGPIWHDDVKYYDFNDGYYNYHYMDVWGKGTTVTVSS
VL: QSALTQPASVSGSPGQTITISCNGTSSDVGGFDSVSWYQQSPGKAPKVMVFDVSHRPSGISNRFSGSKSGNTASLTISGLHIEDEGDYFCSSLTDRSHRIFGGGTKVTVLG
B1 gave an IC50 (ug/ml), neutralization [1] of 0.03 µg/mL, an IC50, pseudovirus neutralization (TZM-bl) [2] of 7.41 µg/mL and an IC50 (ug/ml), neutralization [3] of over 1 µg/mL. The IC50, pseudovirus neutralization (TZM-bl), control virus [4] was over 25 µg/mL, the IC50, pseudovirus neutralization (TZM-bl) [5] was 0.34 µg/mL and the IC50, pseudovirus neutralization (TZM-bl) [6] was under 0.01 µg/mL. The IC50, pseudovirus neutralization (TZM-bl) [7] was under 0.01 µg/mL, the IC50, pseudovirus neutralization (TZM-bl) [8] was under 0.01 µg/mL and the IC50 (ug/ml), neutralization [9] was 0.005 µg/mL. For the same binder, the IC50 (ug/ml), neutralization [10] was over 1 µg/mL, the IC50 (ug/ml), neutralization [11] was 0.008 µg/mL and the IC50, pseudovirus neutralization (TZM-bl) [12] was 1.87 µg/mL. The IC50, pseudovirus neutralization (TZM-bl) [13] was under 0.01 µg/mL, the IC50, pseudovirus neutralization (TZM-bl) [14] was 24.9 µg/mL and the IC50, pseudovirus neutralization (TZM-bl) [15] was 10.9 µg/mL. For the same binder, the IC50, pseudovirus neutralization (TZM-bl) [16] was 20.6 µg/mL, the IC50 (ug/ml), neutralization [17] was 0.002 µg/mL and the IC50, pseudovirus neutralization (TZM-bl) [18] was under 0.01 µg/mL. The IC50, pseudovirus neutralization (TZM-bl) [19] was over 25 µg/mL and the IC50, pseudovirus neutralization (TZM-bl) [20] was under 0.01 µg/mL.
